Assay [1] deals with Abeta 1-42 globulomer, P05067. The experiment in a line: 42 (globulomer) RLU over 40 (Abeta 1-40 monomer) RLU.
Assay [2] has as its target ADDL (Abeta42 aggregate), P05067. Kind of assay: MPA, serial dilutions in CSF, LoD = 2x over background.
For assay [3], the target named is ASPD (Abeta42 aggregate), P05067. The assay is described as above.
The target of assay [4] is Abeta (1-42) aggregates from Alzheimer's Disease Brain Homogenate (human), P05067. Described as above.
The target of a further assay is Abeta42 fibrils, P05067. Described as above.
Assay [5] deals with Abeta 1-42 globulomer, P05067. Kind of assay: MPA bead capture, CSF + 1 ng/mL globulomer, Abeta immunoassay.
The target in assay [6] is Abeta 1-40 monomer, P05067. The experiment in a line: MPA bead capture, Abeta 1-40 read-out of the CSF sample (noise).
The target of a further assay is Abeta 1-40 monomer (UniProt P05067). The assay is described as above.
Setting [7] is: remark: other sources report otherwise.

This note sets out measurements from patent publication US20130109581A1, “POSITIVELY CHARGED SPECIES AS BINDING REAGENTS IN THE SEPARATION OF PROTEIN AGGREGATES FROM MONOMERS” (priority 2009, published 2013).

Read-outs that look alike come from different tables or passages of the source.

B1: Ac-FKFKKK-Link (Ac-FKFKKK-Ahx-Ahx-Cys-NH2) (peptide)
peptide: FKFKKK
HELM: PEPTIDE1{[ac].F.K.F.K.K.K.[O=C(CCCCCN[*:1])[*:2]].[O=C(CCCCCN[*:1])[*:2]].C.[am]}$$$$V2.0
SMILES: CC(=O)N[C@@H](Cc1ccccc1)C(=O)N[C@@H](CCCCN)C(=O)N[C@@H](Cc1ccccc1)C(=O)N[C@@H](CCCCN)C(=O)N[C@@H](CCCCN)C(=O)N[C@@H](CCCCN)C(=O)NCCCCCC(=O)NCCCCCC(=O)N[C@@H](CS)C(N)=O
B1: the 42:40 ratio in assay [1] stood at 5.7. The LoD is 300 pg/mL in assay [2]; 300 pg/mL in assay [3]; below 10 pg/mL in assay [4]; 100 pg/mL in the assay with Abeta42 fibrils, P05067. Besides, the average RLU (42) in assay [5] amounted to 2000 RLU.

As for AKKKKK (modifications not checked), the 42:40 ratio in assay [1] is 2.5. In addition, the average RLU (42) in assay [5] worked out at 442 RLU.

Turning to ANFFAHSS (modifications not checked), the 42:40 ratio in assay [1] is 1.8. Besides, in assay [5], the average RLU (42) was found to be 994 RLU.

As to KKKFKF (modifications not checked) [link-KKKFKF], the 42:40 ratio in assay [1] stood at 5.9. Moreover, in assay [5], the average RLU (42) came out at 1650 RLU.

As to AAKKKA (modifications not checked), the 42:40 ratio in assay [1] is 1.6. In assay [5], the average RLU (42) was determined as 247 RLU.

Regarding AAAKAA (modifications not checked), the 42:40 ratio in assay [1] is 0.8. The average RLU (42) in assay [5] came to 114 RLU.

For AAKKAA (modifications not checked), in assay [1], the 42:40 ratio was determined as 1.1. The average RLU (42) in assay [5] amounted to 160 RLU.

In the case of FKFKKK (modifications not checked) [link-FKFKKK], the 42:40 ratio in assay [1] came to 4.1. For the same molecule, the average RLU (42) in assay [5] was 808 RLU.

As for KKKKKK (modifications not checked), the 42:40 ratio in assay [1] (setting [7]) turned out to be 3.3. For the same molecule, the average RLU (42) in assay [5] (setting [7]) was found to be 658 RLU.

Turning to AKKKKA (modifications not checked), the 42:40 ratio in assay [1] is 2.1. In assay [5], the average RLU (42) amounted to 322 RLU.

Take FKFNLFSG (modifications not checked): the 42:40 ratio in assay [1] was 2.4. Further, the average RLU (42) in assay [5] was 3230 RLU. In assay [6], the average RLU (40) is 1330 RLU.

KKKFKF (modifications not checked) [KKKFKF-link]: the 42:40 ratio in assay [1] came to 3.9. For the same molecule, in assay [5], the average RLU (42) was 748 RLU.

For the molecule IRYVTHQYILWP (modifications not checked) […], the results for the average RLU (40) (in the assay with Abeta 1-40 monomer; in assay [6]) were 348 RLU and 1010 RLU, respectively. For the same molecule, the 42:40 ratio in assay [1] is 3.2. In assay [5], the average RLU (42) is 3240 RLU.

On to DFKLNFKF (modifications not checked), for which the 42:40 ratio in assay [1] worked out at 2. Moreover, in assay [5], the average RLU (42) came to 516 RLU.

Regarding FKFSLFSG (modifications not checked), in assay [1], the 42:40 ratio was determined as 1.5. Besides, the average RLU (42) in assay [5] was found to be 3080 RLU. Moreover, the average RLU (40) in assay [6] was determined as 2010 RLU.
